From the supplement of paper PMC9170038

Tested on: K4 kissing-loop RNA reporter
Assay: apparent KD of K4 kissing-loop reporter; higher = weaker reporter binding
Conditions: Eterna round: R107
Method: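 RNA-MaP round R107: designed RNA switches with theophylline, tryptophan, arginine or FMN aptamers are transcribed on-chip within common flanks. They are titrated with a labelled K4 kissing-loop RNA reporter in RNA-MaP buffer (100 mM Tris pH 7.5, 80 mM KCl, 4 mM MgCl2), without ligand or with the indicated ligand. Median apparent KD per design.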

[1] = input ligand: theophylline 20 uM
[2] = input ligand: tryptophan 2.4 mM
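Further: bound reporter read as fluorescence of individual clusters on recovered sequencing chips by microscopy, with normalized cluster intensities fitted with a binding model.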

Sequence | apparent KD of K4 kissing-loop reporter (input ligand: FMN 200 uM) | apparent KD of K4 kissing-loop reporter (input ligand: arginine 13.2 mM) | apparent KD of K4 kissing-loop reporter (input ligand: none) | apparent KD of K4 kissing-loop reporter [1] | apparent KD of K4 kissing-loop reporter [2]
UAAUCUAACGAGAGUGAUGUUCUCGUCACAGAGGAUAUACGAUUUAGUAGAAGGCUGUUGGAUUCGCUUAAUGAUGACUAGAUUA [FMN A SS t1] | 242 nM | 196 nM | 223 nM | 232 nM | 205 nM
UACUAUAUUCUGUCGUUUUUAUUAGUUUGUCAGGAUAUCGUUUAUUCGAGAAGGGACACUAUCUAGUGAUGUUAGAUAUUUCUUU [JR_Nu3_ExcFMNA_Sub030] | 77.9 nM | 102 nM | 92.7 nM | 93.2 nM | 72.9 nM
UAGAAGAGAAGCGAUACCAGCGAAUGAAGAAGAUGAUGAAGCCAGUGAUGUUGGAAAGAACGCCCUUGGCAGCGCAAGAGAAGAU | 119 nM | 163 nM | 107 nM | 175 nM | 83.2 nM
UAGAUAAUGUAAGAUUAUGAUAAUUGGGAAGGAGCGCGGAAAUUCGCAGGUAGGUCGCCCUAUAAAGUAGUACGAGUGAUGUUCG [6.)] | 217 nM | 205 nM | 281 nM | 305 nM | 261 nM
UAGGGCAUCGCAGGAUAUCCUGCUUAACGUUGGAUUCCAGUGAUGUUGGAAAGUCGGCCUAGGGUAGGAGAAGGGCGAACUUGAA [Maxean] | 172 nM | 157 nM | 194 nM | 195 nM | 98.1 nM
UAUACGAAGCAGUGAUGUUGCUUAUGAGAAGGAGCGCACGAAAGUGCAGGUAGGUCGCUCAGCCAUGUGGACGAAAACGUCCACA [whbob_SS_Arginine_A_sa110] | 108 nM | 130 nM | 109 nM | 137 nM | 93 nM
UAUAGAGUGACGGCCGCCACUAUUGUGAUUUAAUUGUUUGAGUGAUGUUUUGAUGUUUGAUUUUGUAGGACCGGGUUAUAUGUUA [zdzzmullin] | 959 nM | 718 nM | 987 nM | 793 nM | 788 nM
UAUAUAGUGAUGUUAUAUGGGAAGGAGUUACGAGGACCGGUACGGCCGCCACUCGAAACGAGUGAGGAUUUGGGAGAUUGGGUUU [SSTryptA.S] | 333 nM | 211 nM | 206 nM | 208 nM | 232 nM
UAUGAAGGUGGAGGAUAUUGAUUGAGCCUUGGUCAGGAGUGAUGUUCCGGGAAGCCUUGGGUUCAUCGAGAAGGCCAAGGAUAGU [#09 K4 FMN B Same State] | 151 nM | 209 nM | 221 nM | 274 nM | 232 nM
UAUUAAUUGUCAGGAUAUCGUAUUCGAGUGAUGUUCGUAUAUCGACGAUAGUCGAUAUUAUCUAUACGAGAAGGGACAUUAUUUA [JR_SSFMNB_Sub006] | 418 nM | 334 nM | 477 nM | 341 nM | 379 nM
UAUUAAUUGUCAGGAUAUCGUAUUCGAGUGAUGUUCGUAUAUCGACGAUAGUCGAUUCUAUCUAUACGAGAAGGGACAUUAUUUA [JR_SSFMNB_Sub007] | 801 nM | 711 nM | 1090 nM | 804 nM | 755 nM
UAUUCUGUUCGAAAGAACGGAAUUUCGGAAGGAGCGAGAGAAAUCUCAGGUAGGUCGCCGAAAUUAUUAGAUAGUGAUGUUAUCU [Arginine A K4 4] | 162 nM | 110 nM | 135 nM | 177 nM | 158 nM
UCAGAGAACGAAGGAUAUUGACCUGUUUUAUGCUAUGAGUGAUGUUCUUAGUAUCAGCGAGAUGAUCAAGAAGGUCGGGUUCGAC [theeternabot_sameState_KL_FMN_B_48] | 125 nM | 174 nM | 197 nM | 183 nM | 152 nM
UCAUCAUGAUGGUAGUAACCGCAUUGGGAGCGAGGACCGGUACGGCCGCCACUCGAAAUGUACAUAGCAGUAGUGAUGUUGCUGC [theeternabot_sameState_KL_Trp_A_47] | 134 nM | 125 nM | 121 nM | 116 nM | 115 nM
UCAUGAAAGACGGCCGCCACUGAUGCUGGAGUGAUGUUUCGGACAUAGUAGAGUGAUGUUCUGCGCAGGACCGGGUCGUCAUGAA [KL-SSTryp-B10 #double Kiss] | 132 nM | 64.6 nM | 134 nM | 130 nM | 62 nM
UCCUACGAGGUAACGUGGAUAUCUCGUUGCAAGGAUAUCUGGAAACAGAGAAGGUGCAACAUUAUCGGCAGUGAUGUUGCUGACC | 711 nM | 242 nM | 482 nM | 385 nM | 280 nM
UCCUAGGCUCGAAAGAGCCUAGGUUAGACUCAGGAUAUCUGGAAACAGAGAAGGGAGCUACUAGUGAUGUUAGGAAUUCCCAUUU | 102 nM | 85.7 nM | 97.5 nM | 88.5 nM | 95.6 nM
UCCUAGGUUCGUCGGCGAAAGCCCUGCGAAGGAGCGUGCGAAAGUACAGGUAGGUCGCGCAGUGAUGUUGCACCUAGGUAAUAAA [#07 K4 Arginine A Exclusion] | 905 nM | 191 nM | 319 nM | 892 nM | 375 nM
UCCUGCAAUCCACCACGAAAGUGGAUGGAUACCAGAGUCGAAAGACUCCCUUGGCAGCCAGUGAUGUUGGAGCAGGUAAAAUAAA | 526 nM | 532 nM | 630 nM | 402 nM | 473 nM
UCCUGCAAUCGACCACGAAAGUGGAUCGAUACCAGAGUCGAAAGACUCCCUUGGCAGCGAGUGAUGUUCGAGCAGGUAAAAUAAA [#SwitchBubble 23 #K4Late] | 713 nM | 461 nM | 446 nM | 406 nM | 486 nM
UCCUGCAAUCGUCCACGAAAGUGGAUCGAUACCAGAGUCGAAAGACUCCCUUGGCAGCGAGUGAUGUUCGAAGCAGGUAAAUAAA | 487 nM | 387 nM | 466 nM | 548 nM | 391 nM
UCCUGCUGUCUGCCACGAAAGUGGAUUGAUACCAGAGUCGAAAGACUCCCUUGGCAGCGAGUGAUGUUCGAAGCAGGUAAAUAAA [MatMod 2 - Jieux - Exclusion - Theophylline A] | 210 nM | 215 nM | 234 nM | 220 nM | 188 nM

Sequence | apparent KD of K4 kissing-loop reporter (input ligand: FMN 200 uM) | apparent KD of K4 kissing-loop reporter (input ligand: arginine 13.2 mM) | apparent KD of K4 kissing-loop reporter (input ligand: none) | apparent KD of K4 kissing-loop reporter [1] | apparent KD of K4 kissing-loop reporter [2]
UCGAAGGAUGGAAGGAGCGCUCGUCAGUCCUGCGAGUGAUGUUCGUGGGUAAAUAGUCGCGAGCAGGUAGGUCGCCAUCUUGAGC [Laxe] | 139 nM | 102 nM | 114 nM | 126 nM | 109 nM
UCGAAGGAUGGAAGGAGCGCUCGUCAGUCCUGCGAGUGAUGUUCGUGGGUAAAUAUUCGCGAGCAGGUAGGUCGCCAUCUCGAAC [Erbemaa] | 149 nM | 103 nM | 141 nM | 122 nM | 117 nM
UCGCAAAAGUCGGCCGCCACUCCGGGCCCUAUAAAUGGGCGCAGUGAUGUUGCGGCUAGGCCUCUGAGGACCGGGACUUUGAAGA [Esesbior] | 101 nM | 25 nM | 23.9 nM | 102 nM | 131 nM
UCGCCAAAGUCGGCCGCCACUCCGGGCCCUAUAAAUGGGCGCAGUGAUGUUGCGGCUAGGCCUCUGAGGACCGGGACUUUGUAAA [Tiesgeza] | 119 nM | 85.2 nM | 68.9 nM | 32.5 nM | 133 nM
UCUGGAGCAUAUGAUACCAGCAGUGAGAGACAGGAAGUAUAGUGAUGUUAUAUGAGAGAAUGCCCUUGGCAGCGUGUGUAGUGGG [SSTheophylB.N] | 174 nM | 137 nM | 128 nM | 170 nM | 104 nM
UGACAUUGCUCAGAUACCAGACUUGAGGAUCACCCAAGUGCCAAAACGUACUAAAUAAAAGUCCCUUGGCAGCUGAGCAAUGUCU [TheoBX 13] | 49.2 nM | 45.9 nM | 40.6 nM | 88 nM | 54.1 nM
UGACUGGACUGAAGGAGCGAGCGAGACAAAGUCUCGAAAAUUCAGUGAUGUUGAUAUAUAACUCAGGUAGGUCGCAGUCUAGUCU [ArgBS 5 #SwitchBubble #StaticStem] | 447 nM | 433 nM | 477 nM | 464 nM | 431 nM
UGACUGGACUGAAGGAGCGCGCGAGACAAAGUCUCGAACUCUUAGUGAUGUUAAGAAAUAACGCAGGUAGGUCGCAGUCUAGUCU | 138 nM | 122 nM | 147 nM | 133 nM | 150 nM
UGACUGGACUGAAGGAGCGCUAAACUCCUAGUGAUGUUAGGGAAACGAGACAAAGUCUCGAGGCAGGUAGGUCGCAGUCUAGUCU [FiskerMod 1 - Jieux - Same State - Arginine B] | 254 nM | 199 nM | 261 nM | 265 nM | 244 nM
UGACUGGACUGAAGGAGCGCUGAACUCCUAGUGAUGUUAGGAAAACGAGACAAAGUCUCGCGGCAGGUAGGUCGCAGUCUAGUCU | 130 nM | 85.9 nM | 108 nM | 111 nM | 99.2 nM
UGACUGGACUGAAGGAGCGCUUAACUCCUAGUGAUGUUAGGAAAACGAGACAAAGUCUCGAAGCAGGUAGGUCGCAGUCUAGUCU | 152 nM | 123 nM | 151 nM | 158 nM | 132 nM
UGACUGGACUGAAGGAGCGGGCGAGACAAAGUCUCGAACUCUUAGUGAUGUUAGGAAAUAACCCAGGUAGGUCGCAGUCUAGUCU | 243 nM | 132 nM | 178 nM | 216 nM | 188 nM
UGACUGGACUGAAGGAGCGUUCAGGUAGGUCGCAUAGGAGUGAUGUUCCAAUGAAGGAGCGAGCAGGUAGGUCGCAGUCUAGUCU [ArgBS 13 #DoubleAptamer #SwitchBubble] | 157 nM | 219 nM | 243 nM | 205 nM | 158 nM
UGACUGGAUGGAAGGAGCGCUAAACUCCUAGUGAUGUUAGGGAUACGAGGCAAAGCCUCGAAGCAGGUAGGUCGCCAUCUAGUCU [FiskerMod 21 - Jieux - Same State - Arginine B] | 171 nM | 123 nM | 146 nM | 171 nM | 159 nM
UGACUGGAUGGAAGGAGCGCUAAACUCCUAGUGAUGUUAGGGAUAUGAGGCAAAGCCUUGAAGCAGGUAGGUCGCCAUCUAGUCU [FiskerMod 26 - Jieux - Same State - Arginine B] | 141 nM | 126 nM | 146 nM | 146 nM | 142 nM
UGAUACCAGACGGCCGCCACUACACCAGUCAAAGACUGGAUGUGAUGUCUGACCAGUGAUGUUGGUAGGACCGGGUCUGGUAUCU [TrypBX 6 #Palindromic #SwitchBubble #StaticStem] | 246 nM | 303 nM | 428 nM | 450 nM | 305 nM
UGAUACCAGACGGCCGCCACUACACCAGUCAAAGACUGGAUGUGAUGUUCGACCAGUGAUGUUGGUAGGACCGGGUCUGGUAUCU [TrypBX 7 #Palindromic #SwitchBubble #StaticStem] | 133 nM | 121 nM | 127 nM | 109 nM | 147 nM
UGAUACCAGACGGCCGCCACUCCCGCAGGUCAAAGACCUGCGAAGAAGGUUUUUUAGUGAUGUUGGAGGACCGGGUCUGGUAUCU [FiskerMod 20 - Jieux - Exclusion - Tryptophan B] | 311 nM | 92.6 nM | 257 nM | 140 nM | 689 nM
UGAUACCAGACGGCCGCCACUGCGCCAGUCAAUGACUGAGCGCGGUGGCGCUCAGUGAUGUUGUGCAGGACCGGGUCUGGUAUCU [Mod of Eli's TrypBX 8 v6] | 476 nM | 383 nM | 410 nM | 364 nM | 398 nM
UGAUACCAGACUGAUACCAGCCAGUGAUGUUGGCAAUAACCAAGGCGAGUCAAAGACUCGGGCCCUUGGCAGCAGUCUGGUAUCU [TheoBX 6 #SwitchBubble #StaticStem] | 134 nM | 150 nM | 133 nM | 143 nM | 136 nM
UGAUACCAGGCGGCCGCCACUCCUGCAGGUCAAAGACCUGUGAAGCUGGUUCUCCAGUGAUGUUGGAGGACCGGGCCUGGUAUCU [FiskerMod 27 - Jieux - Exclusion - Tryptophan B] | 202 nM | 176 nM | 185 nM | 179 nM | 356 nM
